Consider one molecule from article PMC10239980, “A new portable toluidine blue/aptamer complex-on-polyethyleneimine-coated gold nanoparticles-based sensor for label-free electrochemical detection of alpha-fetoprotein”.

The data set addresses T1, Alpha-fetoprotein (AFP) (UniProt P02771 19-609).
T1 sequence: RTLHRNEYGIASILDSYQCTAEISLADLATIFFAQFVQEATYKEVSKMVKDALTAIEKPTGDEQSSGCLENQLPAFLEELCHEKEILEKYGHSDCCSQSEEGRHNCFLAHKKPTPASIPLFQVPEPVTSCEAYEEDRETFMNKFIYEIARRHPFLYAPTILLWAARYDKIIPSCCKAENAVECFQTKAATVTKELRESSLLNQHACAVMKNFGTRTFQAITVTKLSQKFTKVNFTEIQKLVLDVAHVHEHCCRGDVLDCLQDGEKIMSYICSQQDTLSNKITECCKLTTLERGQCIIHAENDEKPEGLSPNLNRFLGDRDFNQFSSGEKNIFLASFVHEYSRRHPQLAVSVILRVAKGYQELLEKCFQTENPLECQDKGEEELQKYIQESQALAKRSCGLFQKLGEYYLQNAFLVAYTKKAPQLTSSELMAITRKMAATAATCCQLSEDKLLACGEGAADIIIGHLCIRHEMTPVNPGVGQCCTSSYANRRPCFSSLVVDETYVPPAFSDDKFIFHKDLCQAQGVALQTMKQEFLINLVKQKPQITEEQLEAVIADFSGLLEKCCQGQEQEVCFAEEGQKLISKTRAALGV
Description: electrochemical aptasensor (DPV, CV, EIS); toluidine blue, BSA-blocked PEI-AuNPs electrode; 50 ng/mL AFP lowers DPV current ca. 39 to 26 uA; 10 mM sodium phosphate buffer pH 7.0, 30 min incubation at room temperature; CV in 10 mM PBS pH 7.4 with 5 mM [Fe(CN)6]3-. The note with it: protein: commercial.

B1: AFP-specific aptamer (75-mer) (ssDNA)
DNA: GTGACGCTCCTAACGCTGACTCAGGTGCAGTTCTCGACTCGGTCTTGATGTGGGTCCTGTCCGTCCGAACCAATC
Regarding B1, the binding result is listed as “binds”.
